From the supplement of paper PMC5998384

Columns and labels:
HeLa Kyoto [1] = assay: melting temperature (median over replicates), in situ; higher = more thermally stable
HeLa Kyoto [2] = assay: thermal stability score vs G1/S (z-score of summed log2 fold changes over temperatures); higher = more thermally stable than in G1/S
[3] = cell cycle stage: early G1 (4.5 h after nocodazole release)
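For melting temperature (median over replicates), in situ in this document: HeLa Kyoto cells synchronized by double thymidine or nocodazole block, proteins quantified by TMT10plex mass spectrometry, three independent biological replicates.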
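For thermal stability score vs G1/S (z-score of summed log2 fold changes over temperatures) in this document: synchronized HeLa Kyoto cells, proteins quantified by TMT10plex mass spectrometry, three biological replicates, mitosis taken 0.5 h after nocodazole release, G1/S directly after double thymidine block.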

SBF2, sequence (chain, as listed by the source): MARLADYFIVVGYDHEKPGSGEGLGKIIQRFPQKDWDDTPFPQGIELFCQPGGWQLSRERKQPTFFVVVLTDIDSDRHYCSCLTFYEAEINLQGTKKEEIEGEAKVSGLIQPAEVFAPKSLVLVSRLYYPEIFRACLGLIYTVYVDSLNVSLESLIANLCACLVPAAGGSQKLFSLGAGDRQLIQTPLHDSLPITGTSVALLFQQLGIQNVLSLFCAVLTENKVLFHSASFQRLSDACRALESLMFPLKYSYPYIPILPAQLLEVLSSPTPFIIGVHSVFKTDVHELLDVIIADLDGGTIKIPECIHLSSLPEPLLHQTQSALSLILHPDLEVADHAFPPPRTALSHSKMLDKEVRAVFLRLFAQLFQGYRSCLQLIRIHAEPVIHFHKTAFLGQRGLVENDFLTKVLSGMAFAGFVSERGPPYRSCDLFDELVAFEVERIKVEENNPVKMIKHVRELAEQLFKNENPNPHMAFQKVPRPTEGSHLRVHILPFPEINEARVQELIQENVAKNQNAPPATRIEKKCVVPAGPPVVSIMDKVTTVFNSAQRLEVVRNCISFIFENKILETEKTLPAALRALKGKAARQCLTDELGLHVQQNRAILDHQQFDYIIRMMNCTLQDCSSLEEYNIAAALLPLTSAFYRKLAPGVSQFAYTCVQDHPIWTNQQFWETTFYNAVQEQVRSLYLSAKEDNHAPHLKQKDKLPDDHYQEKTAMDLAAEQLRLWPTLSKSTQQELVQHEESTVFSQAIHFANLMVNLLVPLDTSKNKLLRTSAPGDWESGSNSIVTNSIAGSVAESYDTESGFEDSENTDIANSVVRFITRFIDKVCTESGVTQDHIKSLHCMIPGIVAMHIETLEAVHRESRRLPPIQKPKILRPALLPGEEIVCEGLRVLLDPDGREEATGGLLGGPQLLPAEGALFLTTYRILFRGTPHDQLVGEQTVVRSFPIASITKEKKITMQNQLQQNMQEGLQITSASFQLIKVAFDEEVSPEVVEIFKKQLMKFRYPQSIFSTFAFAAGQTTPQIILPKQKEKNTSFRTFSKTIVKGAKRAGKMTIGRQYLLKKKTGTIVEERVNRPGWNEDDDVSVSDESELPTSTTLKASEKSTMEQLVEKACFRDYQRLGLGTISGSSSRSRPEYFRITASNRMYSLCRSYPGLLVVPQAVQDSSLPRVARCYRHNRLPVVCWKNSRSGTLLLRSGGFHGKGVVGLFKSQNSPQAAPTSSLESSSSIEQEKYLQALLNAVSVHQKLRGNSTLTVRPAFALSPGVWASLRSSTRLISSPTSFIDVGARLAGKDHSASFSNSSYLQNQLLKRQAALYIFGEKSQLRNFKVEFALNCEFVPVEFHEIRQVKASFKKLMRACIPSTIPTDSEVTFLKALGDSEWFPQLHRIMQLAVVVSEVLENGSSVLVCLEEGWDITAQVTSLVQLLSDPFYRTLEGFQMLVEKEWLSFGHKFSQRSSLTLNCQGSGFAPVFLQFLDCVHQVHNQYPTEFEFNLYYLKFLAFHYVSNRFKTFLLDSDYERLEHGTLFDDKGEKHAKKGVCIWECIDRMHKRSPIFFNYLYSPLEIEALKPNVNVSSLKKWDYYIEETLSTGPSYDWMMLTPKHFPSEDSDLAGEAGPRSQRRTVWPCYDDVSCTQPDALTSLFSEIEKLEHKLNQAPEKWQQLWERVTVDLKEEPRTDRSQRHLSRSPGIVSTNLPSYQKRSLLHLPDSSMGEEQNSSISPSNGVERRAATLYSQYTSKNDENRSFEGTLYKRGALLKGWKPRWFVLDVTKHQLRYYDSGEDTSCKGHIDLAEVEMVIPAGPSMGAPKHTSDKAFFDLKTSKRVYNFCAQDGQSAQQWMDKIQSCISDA

| Substance | melting temperature (HeLa Kyoto [1]; cell cycle stage: mitosis) | thermal stability score (HeLa Kyoto [2]; [3]) | thermal stability score (HeLa Kyoto [2]; cell cycle stage: mitosis) | melting temperature (HeLa Kyoto [1]; cell cycle stage: G1/S) |
| --- | --- | --- | --- | --- |
| METLYRVPFLVLECPNLKLKKPPWLHMPSAMTVYALVVVSYFLITGGIIYDVIVEPPSVGSMTDEHGHQRPVAFLAYRVNGQYIMEGLASSFLFTMGGLGFIILDRSNAPNIPKLNRFLLLFIGFVCVLLSFFMARVFMRMKLPGYLMG [OSTC] | 54.8 °C | 0.174 | 0.407 | – |
| MREYKVVVLGSGGVGKSALTVQFVTGSFIEKYDPTIEDFYRKEIEVDSSPSVLEILDTAGTEQFASMRDLYIKNGQGFILVYSLVNQQSFQDIKPMRDQIIRVKRYERVPMILVGNKVDLEGEREVSYGEGKALAEEWSCPFMETSAKNKASVDELFAEIVRQMNYAAQPNGDEGCCSACVIL [RAP2B] | 60.7 °C | -0.0087 | 0.542 | 59.2 °C |
| MAAPAGGGGSAVSVLAPNGRRHTVKVTPSTVLLQVLEDTCRRQDFNPCEYDLKFQRSVLDLSLQWRFANLPNNAKLEMVPASRSREGPENMVRIALQLDDGSRLQDSFCSGQTLWELLSHFPQIRECLQHPGGATPVCVYTRDEVTGEAALRGTTLQSLGLTGGSATIRFVMKCYDPVGKTPGSLGSSASAGQAAASAPLPLESGELSRGDLSRPEDADTSGPCCEHTQEKQSTRAPAAAPFVPFSGGGQRLGGPPGPTRPLTSSSAKLPKSLSSPGGPSKPKKSKSGQDPQQEQEQERERDPQQEQERERPVDREPVDREPVVCHPDLEERLQAWPAELPDEFFELTVDDVRRRLAQLKSERKRLEEAPLVTKAFREAQIKEKLERYPKVALRVLFPDRYVLQGFFRPSETVGDLRDFVRSHLGNPELSFYLFITPPKTVLDDHTQTLFQANLFPAALVHLGAEEPAGVYLEPGLLEHAISPSAADVLVARYMSRAAGSPSPLPAPDPAPKSEPAAEEGALVPPEPIPGTAQPVKRSLGKVPKWLKLPASKR [ASPSCR1] | – | -0.292 | -0.934 | 52.2 °C |
| MTMAAAAVVARGAGARAATAAALRGGCGTAARGRPCAGPARPLCTAPGTAPDMKRYLWERYREAKRSTEELVPSIMSNLLNPDAIFSNNEMSLSDIEIYGFDYDYTLVFYSKHLHTLIFNAARDLLINEHRYPAEIRKYEYDPNFAIRGLHYDVQRAVLMKIDAFHYIQLGTVYRGLSVVPDEEVIEMYEGSHVPLEQMSDFYGKSSHGNTMKQFMDIFSLPEMTLLSCVNEYFLKNNIDYEPVHLYKDVKDSIRDVHIKGIMYRAIEADIEKYICYAEQTRAVLAKLADHGKKMFLITNSPSSFVDKGMSYIVGKDWRDLFDVVIVQAEKPNFFNDKRRPFRKMNEKGVLLWDKIHKLQKGQIYKQGNLYEFLKLTGWRGSRVLYFGDHIYSDLADLTLKHGWRTGAIIPELRSELKIMNTEQYIQTMTWLQTLTGLLEQMQVHRDAESQLVLQEWKKERKEMREMTKSFFNAQFGSLFRTDQNPTYFLRRLSRFADIYMASLSCLLNYDVSHTFYPRRTPLQHELPAWSERPPTFGTPLLQEAQAK [NT5DC3] | 54 °C | -1.05 | -1.22 | 53.4 °C |
| MEVGGDTAAPAPGGAEDLEDTQFPSEEAREGGGVHAVPPDPEDEGLEETGSKDKDQPPSPSPPPQSEALSSTSRLWSPAAPENSPTCSPESSSGGQGGDPSDEEWRSQRKHVFVLSEAGKPIYSRYGSVEALSATMGVMTALVSFVQSAGDAIRAIYAEDHKLVFLQQGPLLLVAMSRTSQSAAQLRGELLAVHAQIVSTLTRASVARIFAHKQNYDLRRLLAGSERTLDRLLDSMEQDPGALLLGAVRCVPLARPLRDALGALLRRCTAPGLALSVLAVGGRLITAAQERNVLAECRLDPADLQLLLDWVGAPAFAAGEAWAPVCLPRFNPDGFFYAYVARLDAMPVCLLLLGTQREAFHAMAACRRLVEDGMHALGAMRALGEAASFSNASSASAPAYSVQAVGAPGLRHFLYKPLDIPDHHRQLPQFTSPELEAPYSREEERQRLSDLYHRLHARLHSTSRPLRLIYHVAEKETLLAWVTSKFELYTCLSPLVTKAGAILVVTKLLRWVKKEEDRLFIRYPPKYSTPPATSTDQAAHNGLFTGL [MON1B] | 52.7 °C | -0.93 | -0.544 | 52.9 °C |
| MPKNKKRNTPHRGSSAGGGGSGAAAATAATAGGQHRNVQPFSDEDASIETMSHCSGYSDPSSFAEDGPEVLDEEGTQEDLEYKLKGLIDLTLDKSAKTRQAALEGIKNALASKMLYEFILERRMTLTDSIERCLKKGKSDEQRAAAALASVLCIQLGPGIESEEILKTLGPILKKIICDGSASMQARQTCATCFGVCCFIATDDITELYSTLECLENIFTKSYLKEKDTTVICSTPNTVLHISSLLAWTLLLTICPINEVKKKLEMHFHKLPSLLSCDDVNMRIAAGESLALLFELARGIESDFFYEDMESLTQMLRALATDGNKHRAKVDKRKQRSVFRDVLRAVEERDFPTETIKFGPERMYIDCWVKKHTYDTFKEVLGSGMQYHLQSNEFLRNVFELGPPVMLDAATLKTMKISRFERHLYNSAAFKARTKARSKCRDKRADVGEFF [IFRD1] | – | 0.75 | 1.11 | 56.4 °C |
| MALRELKVCLLGDTGVGKSSIVWRFVEDSFDPNINPTIGASFMTKTVQYQNELHKFLIWDTAGQERFRALAPMYYRGSAAAIIVYDITKEETFSTLKNWVKELRQHGPPNIVVAIAGNKCDLIDVREVMERDAKDYADSIHAIFVETSAKNAININELFIEISRRIPSTDANLPSGGKGFKLRRQPSEPKRSCC [RAB22A] | 53.7 °C | 1.25 | 0.617 | 54.8 °C |
| MAAVVAKREGPPFISEAAVRGNAAVLDYCRTSVSALSGATAGILGLTGLYGFIFYLLASVLLSLLLILKAGRRWNKYFKSRRPLFTGGLIGGLFTYVLFWTFLYGMVHVY [EMC6] | 54.1 °C | 1.03 | -0.846 | 54.6 °C |
| MDSFNYTTPDYGHYDDKDTLDLNTPVDKTSNTLRVPDILALVIFAVVFLVGVLGNALVVWVTAFEAKRTINAIWFLNLAVADFLSCLALPILFTSIVQHHHWPFGGAACSILPSLILLNMYASILLLATISADRFLLVFKPIWCQNFRGAGLAWIACAVAWGLALLLTIPSFLYRVVREEYFPPKVLCGVDYSHDKRRERAVAIVRLVLGFLWPLLTLTICYTFILLRTWSRRATRSTKTLKVVVAVVASFFIFWLPYQVTGIMMSFLEPSSPTFLLLKKLDSLCVSFAYINCCINPIIYVVAGQGFQGRLRKSLPSLLRNVLTEESVVRESKSFTRSTVDTMAQKTQAV [C5AR1] | 57.4 °C | -2.16 | -2.08 | 57.8 °C |
| MDGPVAEHAKQEPFHVVTPLLESWALSQVAGMPVFLKCENVQPSGSFKIRGIGHFCQEMAKKGCRHLVCSSGGNAGIAAAYAARKLGIPATIVLPESTSLQVVQRLQGEGAEVQLTGKVWDEANLRAQELAKRDGWENVPPFDHPLIWKGHASLVQELKAVLRTPPGALVLAVGGGGLLAGVVAGLLEVGWQHVPIIAMETHGAHCFNAAITAGKLVTLPDITSVAKSLGAKTVAARALECMQVCKIHSEVVEDTEAVSAVQQLLDDERMLVEPACGAALAAIYSGLLRRLQAEGCLPPSLTSVVVIVCGGNNINSRELQALKTHLGQV [SDSL] | 57.9 °C | -3.07 | -2.65 | 55.1 °C |
| MATRRLTDAFLLLRNNSIQNRQLLAEQVSSHITSSPLHSRSIAAELDELADDRMALVSGISLDPEAAIGVTKRPPPKWVDGVDEIQYDVGRIKQKMKELASLHDKHLNRPTLDDSSEEEHAIEITTQEITQLFHRCQRAVQALPSRARACSEQEGRLLGNVVASLAQALQELSTSFRHAQSGYLKRMKNREERSQHFFDTSVPLMDDGDDNTLYHRGFTEDQLVLVEQNTLMVEEREREIRQIVQSISDLNEIFRDLGAMIVEQGTVLDRIDYNVEQSCIKTEDGLKQLHKAEQYQKKNRKMLVILILFVIIIVLIVVLVGVKSR [STX16] | 49.8 °C | -1.14 | -0.879 | 51 °C |
| TIMP1 | 54.5 °C | 0.849 | -1.24 | 54.8 °C |
| MAYQLYRNTTLGNSLQESLDELIQSQQITPQLALQVLLQFDKAINAALAQRVRNRVNFRGSLNTYRFCDNVWTFVLNDVEFREVTELIKVDKVKIVACDGKNTGSNTTE [GTF2A2] | 53.4 °C | 0.419 | 0.557 | 58.6 °C |
| SBF2 | 52.3 °C | -0.139 | 0.0344 | – |
| MLCRLGGRWLRPLPALQLWARDLPLAPVPTSGAKRPTLPVWAVAPVSAVHANGWYEALAASSPVRVAEEVLLGVHAATGLPWWGSILLSTVALRGAVTLPLAAYQHYILAKVENLQPEIKTIARHLNQEVAVRANQLGWSKRDARLTYLKNMRRLISELYVRDNCHPFKATVLVWIQLPMWIFMSFALRNLSTGAAHSEGFSVQEQLATGGILWFPDLTAPDSTWILPISVGVINLLIVEICALQKIGMSRFQTYITYFVRAMSVLMIPIAATVPSSIVLYWLCSSFVGLSQNLLLRSPGFRQLCRIPSTKSDSETPYKDIFAAFNTKFISRK [COX18] | 57.1 °C | 0.867 | -0.575 | – |
| MFTSEKGVVEEWLSEFKTLPETSLPNYATNLKDKSSLVSSLYKVIQEPQSELLEPVCHQLFEFYRSGEEQLLQFTLQFLPELIWCYLAVSASRNVHSSGCIEALLLGVYNLEIVDKQGHTKVLSFTIPSLSKPSVYHEPSSIGSMALTESALSQHGLSKVVYSGPHPQREMLTAQNRFEVLTFLLLCYNAALTYMPSVSLQSLCQICSRICVCGYPRQHVRKYKGISSRIPVSSGFMVQMLTGIYFAFYNGEWDLAQKALDDIIYRAQLELYPEPLLVANAIKASLPHGPMKSNKEGTRCIQVEITPTSSRISRNAVTSMSIRGHRWKRHGNTELTGQEELMEISEVDEGFYSRAASSTSQSGLSNSSHNCSNKPSIGKNHRRSGGSKTGGKEKETTGESCKDHFARKQTQRAQSENLELLSLKRLTLTTSQSLPKPSSHGLAKTAATVFSKSFEQVSGVTVPHNPSSAVGCGAGTDANRFSACSLQEEKLIYVSERTELPMKHQSGQQRPPSISITLSTD [FAM126A] | 50.9 °C | 0.141 | 0.0377 | – |
| MGNPENIEDAYVAVIRPKNTASLNSREYRAKSYEILLHEVPIEGQKKKRKKVLLETKLQGNSEITQGILDYVVETTKPISPANQGIRGKRVVLMKKFPLDGEKMGREASLFIVPSVVKDNTKYTYTPGCPIFYCLQDIMRVCSESSTHFATLTARMLIALDKWLDERHAQSHFIPALFRPSPLERIKTNVINPAYATESGQTENSLHMGYSALEIKSKMLALEKADTCIYNPLFGSDLQYTNRVDKVVINPYFGLGAPDYSKIQIPKQEKWQRSMSSVTEDKERQWVDDFPLHRSACEGDSELLSRLLSERFSVNQLDSDHWAPIHYACWYGKVEATRILLEKGKCNPNLLNGQLSSPLHFAAGGGHAEIVQILLNHPETDRHITDQQGRSPLNICEENKQNNWEEAAKLLKEAINKPYEKVRIYRMDGSYRSVELKHGNNTTVQQIMEGMRLSQETQQYFTIWICSENLSLQLKPYHKPLQHVRDWPEILAELTNLDPQRETPQLFLRRDVRLPLEVEKQIEDPLAILILFDEARYNLLKGFYTAPDAKLITLASLLLQIVYGNYESKKHKQGFLNEENLKSIVPVTKLKSKAPHWTNRILHEYKNLSTSEGVSKEMHHLQRMFLQNCWEIPTYGAAFFTGQIFTKASPSNHKVIPVYVGVNIKGLHLLNMETKALLISLKYGCFMWQLGDTDTCFQIHSMENKMSFIVHTKQAGLVVKLLMKLNGQLMPTERNS [KRIT1] | – | -0.252 | 0.0145 | – |
